The target of assay [1] is T1, non-fluorescence protein-tagged PRL2 (human, UniProt Q12974-1 1-167).
T1 construct: human PRL2, NP_001356788.1, residues 1-167; Subcloned into pET28a; the limits 1-167 are printed for human PRL2 in the same paragraph; also called non-CyPet-tagged PRL2; source: E. coli Rosetta (DE3), purified (Ni-NTA, SEC)
T1 sequence (looked up): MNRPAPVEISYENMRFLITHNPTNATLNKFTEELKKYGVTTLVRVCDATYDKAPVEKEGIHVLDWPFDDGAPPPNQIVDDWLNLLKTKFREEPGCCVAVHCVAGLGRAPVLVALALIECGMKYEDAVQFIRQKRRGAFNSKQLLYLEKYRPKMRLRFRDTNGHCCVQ
The experiment in a line: ITC; cell 20 uM PRL2, syringe 200 uM CNNM3 CBS protein, 25 C, 20 mM Tris-HCl pH 7.0, 50 mM NaCl, 1 mM TCEP. The note with it: both partners purified.

For assay [2], the target named is T2, PRL2 (residues 1-167) with CyPet at its N-terminus (human, UniProt Q12974-1 1-167).
T2 construct: human PRL2 (phosphatase of regenerating liver 2), NP_001356788.1, residues 1-167; GS linker between CyPet and PRL2; pET22c derivative; Methods and discussion sometimes call it YPet-PRL2; also called CyPet-PRL2; CyPet-PRL2 WT; source: E. coli Rosetta (DE3), purified (Ni-NTA, SEC); not shown: CyPet (monomeric mutation A206K), N-terminal, kept
T2 sequence (looked up): T1 sequence (looked up)
The experiment in a line: FRET or BRET; 30 nM CyPet-PRL2 mixed with serial dilutions of CNNM3 CBS-YPet (0-300 nM) in 96-well plates, TBS (50 mM Tris-HCl pH 8.0, 150 mM NaCl), R.T. 1 h, excitation 435 nm, emission 530 nm. The note with it: both partners purified.

B1: non-YPet-tagged CNNM3 CBS domain (domain or fragment, human, UniProt Q8NE01 301-452, looked up)
chain: YSDLSKGVLRCRTVEDVLTPLEDCFMLDASTVLDFGVLASIMQSGHTRIPVYEEERSNIVDMLYLKDLAFVDPEDCTPLSTITRFYNHPLHFVFNDTKLDAVLEEFKRGKSHLAIVQKVNNEGEGDPFYEVLGLVTLEDVIEEIIRSEILDE
notes: CBS domain of human CNNM3, XP_011509259.1, residues 301-452; Subcloned into pET28a; the limits 301-452 are printed for the CBS domain in the same paragraph; also called non-fluorescence-tagged CNNM3; CNNM3 CBS protein; source: E. coli Rosetta (DE3), purified (Ni-NTA, anion exchange)
For the molecule B1, binding in assay [1] was put at a Kd of 15.2 ± 5 nM.

B2: CNNM3 CBS domain (residues 301-452) with YPet at its C-terminus (domain or fragment, human, UniProt Q8NE01 301-452, looked up)
chain: B1 chain
notes: CBS domain of human CNNM3 (cyclin M3), XP_011509259.1, residues 301-452; GS linker between the CBS domain and YPet; pET22c derivative; Methods and discussion sometimes call it CNNM3 CBS-CyPet; also called CNNM3-YPet; CNNM3 CBS-YPet; source: E. coli Rosetta (DE3), purified (Ni-NTA, anion exchange); not shown: YPet, C-terminal, kept
B2: binding in assay [2] was characterised by a dissociation constant (Kd) of 108 ± 16 nM.

The record behind these values is publication PMC7393355, “A FRET-based screening method to detect potential inhibitors of the binding of CNNM3 to PRL2” (Scientific Reports, 2020).
